Results from US20230212549A1, “COMPOUNDS COMPRISING A […] LIGAND AND USE THEREOF” (priority 2021, published 2023).
Each block holds one binder with its values, some of them ahead of it. Bridge positions count the residues as written; N and C are the ends.

Columns and labels:
Assay in all cases: cell-based or functional assay
Caspase-6, P55212 = target: T1, Caspase-6, P55212
T1 chain: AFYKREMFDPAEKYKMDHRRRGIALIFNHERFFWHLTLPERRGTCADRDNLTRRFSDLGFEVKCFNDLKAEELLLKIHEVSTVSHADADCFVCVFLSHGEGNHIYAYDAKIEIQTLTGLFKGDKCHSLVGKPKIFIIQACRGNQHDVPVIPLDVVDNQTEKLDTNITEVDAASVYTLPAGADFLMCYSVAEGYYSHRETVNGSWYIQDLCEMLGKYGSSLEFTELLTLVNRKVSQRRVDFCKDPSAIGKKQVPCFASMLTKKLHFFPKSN

A20, P21580 = target: T2, A20, P21580
T2 chain: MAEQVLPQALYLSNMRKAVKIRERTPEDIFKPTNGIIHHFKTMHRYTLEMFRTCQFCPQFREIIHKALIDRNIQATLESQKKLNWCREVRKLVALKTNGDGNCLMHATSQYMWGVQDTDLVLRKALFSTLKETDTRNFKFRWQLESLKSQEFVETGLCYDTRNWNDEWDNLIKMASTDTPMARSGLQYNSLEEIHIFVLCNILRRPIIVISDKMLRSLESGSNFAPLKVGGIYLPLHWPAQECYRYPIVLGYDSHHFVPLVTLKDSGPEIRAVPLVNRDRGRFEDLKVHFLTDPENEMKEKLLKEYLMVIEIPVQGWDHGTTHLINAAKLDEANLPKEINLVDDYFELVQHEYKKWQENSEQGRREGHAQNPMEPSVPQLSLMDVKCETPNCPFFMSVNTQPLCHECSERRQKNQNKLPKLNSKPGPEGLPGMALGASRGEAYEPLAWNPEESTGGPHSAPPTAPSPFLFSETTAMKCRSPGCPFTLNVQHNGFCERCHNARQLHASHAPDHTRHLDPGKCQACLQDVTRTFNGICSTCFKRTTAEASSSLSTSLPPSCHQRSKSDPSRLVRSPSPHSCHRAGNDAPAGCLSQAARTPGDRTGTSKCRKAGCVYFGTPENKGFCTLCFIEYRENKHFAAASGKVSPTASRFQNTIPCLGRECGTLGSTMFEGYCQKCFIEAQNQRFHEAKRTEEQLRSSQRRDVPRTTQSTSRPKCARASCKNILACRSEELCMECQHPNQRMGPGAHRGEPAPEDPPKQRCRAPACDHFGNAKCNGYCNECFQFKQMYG

[1] = target: T3, PDE4D2 (h) (human), Q08499
T3 chain: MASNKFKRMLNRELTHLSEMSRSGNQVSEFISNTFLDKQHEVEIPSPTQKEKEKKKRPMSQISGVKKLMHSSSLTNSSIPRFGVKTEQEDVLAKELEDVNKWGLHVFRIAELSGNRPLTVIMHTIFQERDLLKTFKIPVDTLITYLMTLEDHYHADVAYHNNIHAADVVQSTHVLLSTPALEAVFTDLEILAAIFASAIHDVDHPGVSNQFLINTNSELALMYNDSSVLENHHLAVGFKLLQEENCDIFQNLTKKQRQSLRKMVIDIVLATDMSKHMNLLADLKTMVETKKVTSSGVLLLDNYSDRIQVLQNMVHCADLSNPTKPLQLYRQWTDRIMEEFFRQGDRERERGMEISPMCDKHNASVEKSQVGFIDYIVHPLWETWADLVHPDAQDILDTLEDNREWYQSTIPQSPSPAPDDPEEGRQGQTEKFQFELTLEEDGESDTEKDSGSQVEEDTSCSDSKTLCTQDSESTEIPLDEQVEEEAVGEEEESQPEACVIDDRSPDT

Ataxin3, P54252 = target: Ataxin3, P54252
Chain of Ataxin3, P54252 (P54252 whole entry): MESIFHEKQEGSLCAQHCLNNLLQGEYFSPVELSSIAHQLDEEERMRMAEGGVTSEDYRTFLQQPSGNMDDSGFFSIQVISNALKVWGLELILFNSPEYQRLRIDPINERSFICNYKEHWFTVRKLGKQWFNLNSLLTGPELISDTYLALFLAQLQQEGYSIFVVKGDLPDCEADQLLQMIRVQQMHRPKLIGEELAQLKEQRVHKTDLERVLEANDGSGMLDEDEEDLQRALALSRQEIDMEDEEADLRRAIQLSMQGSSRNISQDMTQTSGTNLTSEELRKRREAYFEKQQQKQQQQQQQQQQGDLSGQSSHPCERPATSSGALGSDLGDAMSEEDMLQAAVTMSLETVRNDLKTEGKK

[2] = target: T4, Ubiquitin carboxyl-terminal hydrolase 5, P45974
T4 chain: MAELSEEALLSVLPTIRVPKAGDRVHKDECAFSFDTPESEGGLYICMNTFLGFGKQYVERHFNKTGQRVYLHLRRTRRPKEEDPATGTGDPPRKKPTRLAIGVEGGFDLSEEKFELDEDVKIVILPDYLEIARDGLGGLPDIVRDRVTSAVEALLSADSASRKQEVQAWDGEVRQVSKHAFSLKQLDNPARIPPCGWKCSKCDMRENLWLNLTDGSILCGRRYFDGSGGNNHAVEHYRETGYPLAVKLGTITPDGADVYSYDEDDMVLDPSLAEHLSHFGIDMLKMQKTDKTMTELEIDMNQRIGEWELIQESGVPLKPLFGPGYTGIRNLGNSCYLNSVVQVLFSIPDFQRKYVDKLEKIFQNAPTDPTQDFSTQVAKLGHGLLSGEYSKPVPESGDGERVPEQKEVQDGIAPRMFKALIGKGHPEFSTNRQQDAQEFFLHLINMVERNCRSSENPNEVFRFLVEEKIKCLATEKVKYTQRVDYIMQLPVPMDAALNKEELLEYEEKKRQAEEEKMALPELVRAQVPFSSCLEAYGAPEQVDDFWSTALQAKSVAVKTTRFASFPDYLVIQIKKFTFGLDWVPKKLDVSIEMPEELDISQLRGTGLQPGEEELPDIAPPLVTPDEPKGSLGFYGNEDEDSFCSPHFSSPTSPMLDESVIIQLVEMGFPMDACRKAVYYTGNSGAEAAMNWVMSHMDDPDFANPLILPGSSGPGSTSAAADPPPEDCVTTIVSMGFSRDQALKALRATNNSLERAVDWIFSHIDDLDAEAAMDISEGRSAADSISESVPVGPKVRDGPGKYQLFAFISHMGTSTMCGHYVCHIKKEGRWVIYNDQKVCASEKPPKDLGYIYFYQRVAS

Cathepsin V, O60911 = target: Cathepsin V, O60911
Chain of Cathepsin V, O60911 (O60911 114-334 limits assumed): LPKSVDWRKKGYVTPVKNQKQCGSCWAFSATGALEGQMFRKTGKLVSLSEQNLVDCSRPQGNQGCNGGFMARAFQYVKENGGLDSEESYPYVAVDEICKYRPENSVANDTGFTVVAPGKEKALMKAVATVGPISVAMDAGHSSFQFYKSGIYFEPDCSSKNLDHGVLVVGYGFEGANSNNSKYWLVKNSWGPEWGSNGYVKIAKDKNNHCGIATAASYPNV

[3] = target: T5, Ubiquitin carboxy-terminal hydrolase L3, P15374
T5 chain: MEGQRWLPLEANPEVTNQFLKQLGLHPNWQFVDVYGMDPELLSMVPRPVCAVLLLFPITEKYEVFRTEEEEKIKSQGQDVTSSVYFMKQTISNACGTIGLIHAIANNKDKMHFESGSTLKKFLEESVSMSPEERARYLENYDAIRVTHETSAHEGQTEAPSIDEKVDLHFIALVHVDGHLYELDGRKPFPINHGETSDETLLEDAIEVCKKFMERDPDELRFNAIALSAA

Cathepsin L, P07711 = target: Cathepsin L, P07711
Chain of Cathepsin L, P07711 (P07711 114-333 limits assumed): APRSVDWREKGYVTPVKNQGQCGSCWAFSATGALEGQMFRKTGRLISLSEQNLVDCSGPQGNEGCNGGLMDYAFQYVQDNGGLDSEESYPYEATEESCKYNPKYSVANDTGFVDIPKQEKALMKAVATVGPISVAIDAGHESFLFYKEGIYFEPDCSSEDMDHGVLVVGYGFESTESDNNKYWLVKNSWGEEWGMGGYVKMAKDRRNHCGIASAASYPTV

B1: Hex-[Cys(tMeBn(DOTA-PP))-Pro-Pro-Thr-Gln-Phe-Cys]-Asp-NH2 (peptide)
peptide: Hex-CPPTQFCD-NH2
modifications: bridge 1-7; not fully specified (bridges); printed as Hex-[Cys(tMeBn(DOTA-PP))-Pro-Pro-Thr-Gln-Phe-Cys]-Asp-NH2
Percentage inhibition (%) at 1 µM (Caspase-6, P55212): 1% | Percentage inhibition (%) at 10 µM (Caspase-6, P55212): -1% | Percentage inhibition (%) at 1 µM (A20, P21580): 2% | Percentage inhibition (%) at 10 µM (A20, P21580): -4% | % inhibition of control enzyme activity, compound at 10 µM [1]: -5% | Percentage inhibition (%) at 1 µM (Ataxin3, P54252): 1% | Percentage inhibition (%) at 10 µM (Ataxin3, P54252): 10% | Percentage inhibition (%) at 1 µM [2]: 3% | Percentage inhibition (%) at 10 µM [2]: 46% | Percentage inhibition (%) at 1 µM (Cathepsin V, O60911): 1% | Percentage inhibition (%) at 10 µM (Cathepsin V, O60911): -18% | Percentage inhibition (%) at 1 µM [3]: -1% | Percentage inhibition (%) at 10 µM [3]: 14% | Percentage inhibition (%) at 1 µM (Cathepsin L, P07711): 3% | Percentage inhibition (%) at 10 µM (Cathepsin L, P07711): 6%

Percentage inhibition (%) at 1 µM (Caspase-6, P55212): 6% | Percentage inhibition (%) at 10 µM (Caspase-6, P55212): -3% | Percentage inhibition (%) at 1 µM (A20, P21580): 1% | Percentage inhibition (%) at 10 µM (A20, P21580): 0% | % inhibition of control enzyme activity, compound at 10 µM [1]: -4% | Percentage inhibition (%) at 1 µM [2]: -4% | Percentage inhibition (%) at 10 µM [2]: -2% | Percentage inhibition (%) at 1 µM (Cathepsin V, O60911): -1% | Percentage inhibition (%) at 10 µM (Cathepsin V, O60911): -1% | Percentage inhibition (%) at 1 µM [3]: 0% | Percentage inhibition (%) at 10 µM [3]: 0% | Percentage inhibition (%) at 1 µM (Cathepsin L, P07711): 0% | Percentage inhibition (%) at 10 µM (Cathepsin L, P07711): -6%
B2: Hex-[Cys(tMeBn(DOTA-AET))-Pro-Pro-Thr-Gln-Phe-Cys]-OH (peptide)
peptide: Hex-CPPTQFC-OH
modifications: bridge 1-7; not fully specified (bridges); printed as Hex-[Cys(tMeBn(DOTA-AET))-Pro-Pro-Thr-Gln-Phe-Cys]-OH
Percentage inhibition (%) at 1 µM (Ataxin3, P54252): 2% | Percentage inhibition (%) at 10 µM (Ataxin3, P54252): -1%
